Drawing on patent US20100249021A1, this text covers plaque inhibitory rate on cells expressing the fusion protein and IC50, plaque inhibition on MDCK cells, peptide combination for 5 molecules.

Assay in all cases: cell-based or functional assay
The target of assay [1] is membrane protein HA of recombinant human influenza virus A/WSN/33 (H1N1) (human influenza virus A/WSN/33 (H1N1)) (UniProt P03454).
Assay [2] addresses membrane protein HA of recombinant avian influenza virus QH-WSN (HA of H5N1 strain A/bar-headed goose/Qinghai/1/05) (avian influenza virus H5N1, strain A/bar-headed goose/Qinghai/1/05).
Assay [3] addresses membrane protein HA of recombinant human influenza virus A/WSN/33 (H1N1) (human influenza virus A/WSN/33 (H1N1)) (UniProt P03454). This is another data set of the same source.
In assay [4] the target is membrane protein HA of recombinant avian influenza virus QH-WSN (HA of H5N1 strain A/bar-headed goose/Qinghai/1/05) (avian influenza virus H5N1, strain A/bar-headed goose/Qinghai/1/05). This is another data set of the same source.

“fusion protein HR1-EGFP expressed on the membrane of MDCK cells (from UniProt P08138 251-272)”: the plaque inhibitory rate on cells expressing the fusion protein in assay [1] was found to be 11%; in assay [2], 25%.

For “fusion protein HR2-EGFP expressed on the membrane of MDCK cells (from UniProt P08138 251-272)”, the plaque inhibitory rate on cells expressing the fusion protein in assay [1] came out at 43%; in assay [2], 57.8%.

B1: polypeptide HR1 combined with HR2B (peptide)
peptide 1: KESTQKAIDGVTNKVNSIIDK
peptide 2: NAELLVLMENERTLDFHDSNVKN
As to B1, the IC50, plaque inhibition on MDCK cells, peptide combination was 62.5 µM in assay [3] and 36.7 µM in assay [4].

B2: polypeptide HR1 combined with HR2A (peptide)
peptide 1: KESTQKAIDGVTNKVNSIIDK
peptide 2: RRIENLNKKMEDGFLDVWTY
Regarding B2, the IC50, plaque inhibition on MDCK cells, peptide combination in assay [3] was 52.9 µM; in assay [4], 43.6 µM.

B3: polypeptide HR1 combined with HR2C (peptide)
peptide 1: KESTQKAIDGVTNKVNSIIDK
peptide 2: FHDSNVKNLYDKVRLQ
Regarding B3, the values for the IC50, plaque inhibition on MDCK cells, peptide combination in assay [3] and in assay [4] were 30 µM and 41.6 µM, respectively.
